# Where two headings read alike, the source gives them in different places.
# Tests used:
# Assay in all cases: BIAcore
# recombinant IL-17RA [1] = target: T1, recombinant IL-17RA (human, UniProt Q96F46 33-320)
# recombinant IL-17RA [2] = target: T1, recombinant IL-17RA; remark: listed apart in the source
# [3] = target: T2, Recombinant human IL-17A (Peprotech AF-200-17) (human, UniProt Q16552 24-155)
# [4] = target: T2, Recombinant human IL-17A (Peprotech …); remark: listed apart in the source
# T2 sequence (Q16552 24-155): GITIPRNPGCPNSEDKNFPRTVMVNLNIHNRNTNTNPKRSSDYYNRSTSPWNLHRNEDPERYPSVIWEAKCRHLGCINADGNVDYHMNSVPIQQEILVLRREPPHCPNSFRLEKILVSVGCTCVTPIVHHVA
Binder,Kd (recombinant IL-17RA [1]) [nM],Kd (recombinant IL-17RA [2]) [nM],Kd [3] [nM],Kd [4] [nM]
clone 2.1 VH (VHH) VHH: QVQLVQSGAEVKKPGASVKVSCKASGYPFTSYDINWVRQATGQSLEWMGWMNPNSGDTVYAQKFQGRVTMTRNTSISTAYMELSSLRSEDTAVYFCARGRRDDWKNNYWGQGTLVTVSS,6,6,–,–
clone 1.1 VH (VHH) VHH: EVQLVESGGGLVQPGGSLRLSCAASGFTFSSYSMYWVRQAPGKGLEWVANIKQDGSEKYYVDSVKGRFTISRDNAKNSLFLQMNSLRAEDTAVYYCAKGEILPLHFDYWGQGTLVTVSS,–,–,5,5
clone 2.2 VH (VHH) VHH: QVQLVQSGAEVKKPGASVKVSCKASGYPFTSYDINWVRQATGRSLEWMGWMNPTNGNTVYAQKFQDRVTMTRNTSISTAYMELSSLRSEDTAVYFCARGRRDDWKNNYWGQGTLVTVSS,–,1.4,–,–
clone 1.6 VH (VHH) VHH: EVQLVESGGGLVQPGGSLRLSCAASGFTFSSYSMYWVRQAPGKGLEWVAEIKQDGSEQYYVDSVKGRFTISRDNAKNSLYLQMNSLRAEDTAVYYCAKGEILPLYFDYWGQGTLVTVSS,–,–,–,0.63
clone 1.10 VH (VHH) VHH: VQLVESGGGLVQPGGSLRLSCAASGFTFSSYRMYWVRQAPGKGLEWVASIEQDGSEEYYVDSVKGRFTISRDNAKKSLFLQMNSLRAEDTAVYYCAKGEILPLYFDYWGQGTLVTVSS,–,–,–,1
